Columns and labels:
[1] = system: E. coli ATCC 43895 (E. coli O157:H7); assay: in vitro Tryptic Soy Broth (TSB) growth inhibition assay (Bioscreen C, OD 420-580 nm); format: cell-based, Escherichia coli
[2] = system: Ps. aeruginosa (Pak strain); assay: in vitro growth inhibition assay in Luria Broth Base (LB) (Bioscreen C, OD 420-580 nm); format: cell-based, Pseudomonas aeruginosa; settings: 2% (w/v) LF in PBS, sample pH of 1.7 or lower; 200 CFU's/well (200 CFU's:1 mg LF); FIG. 1B

B1: lactoferrin (protein, UniProt P02788 20-710, looked up)
Lactotransferrin: GRRRSVQWCAVSQPEATKCFQWQRNMRKVRGPPVSCIKRDSPIQCIQAIAENRADAVTLDGGFIYEAGLAPYKLRPVAAEVYGTERQPRTHYYAVAVVKKGGSFQLNELQGLKSCHTGLRRTAGWNVPIGTLRPFLNWTGPPEPIEAAVARFFSASCVPGADKGQFPNLCRLCAGTGENKCAFSSQEPYFSYSGAFKCLRDGAGDVAFIRESTVFEDLSDEAERDEYELLCPDNTRKPVDKFKDCHLARVPSHAVVARSVNGKEDAIWNLLRQAQEKFGKDKSPKFQLFGSPSGQKDLLFKDSAIGFSRVPPRIDSGLYLGSGYFTAIQNLRKSEEEVAARRARVVWCAVGEQELRKCNQWSGLSEGSVTCSSASTTEDCIALVLKGEADAMSLDGGYVYTAGKCGLVPVLAENYKSQQSSDPDPNCVDRPVEGYLAVAVVRRSDTSLTWNSVKGKKSCHTAVDRTAGWNIPMGLLFNQTGSCKFDEYFSQSCAPGSDPRSNLCALCIGDEQGENKCVPNSNERYYGYTGAFRCLAENAGDVAFVKDVTVLQNTDGNNNEAWAKDLKLADFALLCLDGKRKPVTEARSCHLAMAPNHAVVSRMDKVERLKQVLLHQQAKFGRNGSDCPDKFCLFQSETKNLLFNDNTECLARLHGKTTYEKYLGPQYVAGITNLKKCSTSPLLEACEFLRK
[1]; 2% (w/v) LF in PBS, test sample pH below 2.5, 530 CFU's:1 mg LF, 37° C., FIG. 1A
  time for which E. coli growth was inhibited: at least 60 hours
[1]; 2% (w/v) LF in demi water, 0-1 mM EDTA, pH about 5 not adjusted, 270 CFU's:1 mg LF, FIG. 2
  antimicrobial activity on E. coli O157:H7 as function of EDTA concentration: increases with increasing EDTA concentration
[2]
  time for which growth of Pseudomonas aeruginosa is inhibited: at least 45 hours

— patent US20080318834A1, “Antimicrobial Lactoferrin Compositions for Surfaces, Cavities, and Foodstuff” (priority 2004, published 2008)
